Test results: US20240270846A1 (published 2024)

Target: T1, CD3 epsilon homodimer protein (UniProt P07766 23-126)
T1 construct: also called CD3 (CD3 epsilon)
Test: SPR (Biacore T200), CD3e homodimer on CM4 chip, antibody as analyte; KD ratio vs unaltered GLS3000;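 further: CD3 epsilon homodimer amine-coupled to the sensor surface, antibodies injected as analyte at 25 °C with HBS-EP+ running buffer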

T1 sequence (P07766 23-126): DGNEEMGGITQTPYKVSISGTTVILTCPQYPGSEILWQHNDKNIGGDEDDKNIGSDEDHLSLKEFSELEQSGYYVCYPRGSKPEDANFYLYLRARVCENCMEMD

KD ratio to GLS3000 | Binder
0.97 ratio | CE115HA000/GLS3000 S56Q one-arm antibody (antibody, human IgG1, kappa, L234A L235A, N297A, name in Kabat numbering, one-arm IgG1) heavy: QVQLVESGGGVVQPGRSLRLSCAASGFTFSNAWMHWVRQAPGKGLEWVAQIKAKSNNYATYYAESVKGRFTISRDDSKNSLYLQMNSLKTEDTAVYYCRYVHYGAYYGVDAWGQGTTVTVSSASTKGPSVFPLAPSSKSTSGGTAALGCLVKDYFPEPVTVSWNSGALTSGVHTFPAVLQSSGLYSLSSVVTVPSSSLGTQTYICNVNHKPSNTKVDKKVEPKSCDKTHTCPPCPAPEAAGGPSVFLFPPKPKDTLMISRTPEVTCVVVDVSHEDPEVKFNWYVDGVEVHNAKTKPREEQYASTYRVVSVLTVLHQDWLNGKEYKCKVSNKALPAPIEKTISKAKGQPREPQVYTLPPSRCELTKNQVSLSCAVKGFYPSDIAVEWESNGQPENNYKTTPPVLDSDGSFFLVSKLTVDKSRWQQGNVFSCSVMHEALHNHYTQKSLSLSPDYKDDDDK EPKSSDKTHTCPPCPAPELLGGPSVFLFPPKPKDTLMISRTPEVTCVVVDVSHEDPEVKFNWYVDGVEVHNAKTKPREEQYNSTYRVVSVLTVLHQDWLNGKEYKCKVSNKALPAPIEKTISKAKGQPREPQVCTLPPSRDELTKNQVSLWCLVKGFYPSDIAVEWESNGQPENNYKTTPPVLDSDGSFFLYSKLTVDKSRWQQGNVFSCSVMHEALHNRYTQKSLSLSP light: DIVMTQSPLSLPVTPGEPASISCRSSQSLVHSNRNTYLHWYQQKPGQAPRLLIYKVSNRFQGVPDRFSGSGSGTDFTLKISRVEAEDVGVYYCGQGTQVPYTFGQGTKLEIKRTVAAPSVFIFPPSDEQLKSGTASVVCLLNNFYPREAKVQWKVDNALQSGNSQESVTEQDSKDSTYSLSSTLTLSKADYEKHKVYACEVTHQGLSSPVTKSFNRGEC
1.01 ratio | CE115HA000/GLS3000 S56T one-arm antibody (antibody, human IgG1, kappa, L234A L235A, N297A, name in Kabat numbering, one-arm IgG1) heavy: QVQLVESGGGVVQPGRSLRLSCAASGFTFSNAWMHWVRQAPGKGLEWVAQIKAKSNNYATYYAESVKGRFTISRDDSKNSLYLQMNSLKTEDTAVYYCRYVHYGAYYGVDAWGQGTTVTVSSASTKGPSVFPLAPSSKSTSGGTAALGCLVKDYFPEPVTVSWNSGALTSGVHTFPAVLQSSGLYSLSSVVTVPSSSLGTQTYICNVNHKPSNTKVDKKVEPKSCDKTHTCPPCPAPEAAGGPSVFLFPPKPKDTLMISRTPEVTCVVVDVSHEDPEVKFNWYVDGVEVHNAKTKPREEQYASTYRVVSVLTVLHQDWLNGKEYKCKVSNKALPAPIEKTISKAKGQPREPQVYTLPPSRCELTKNQVSLSCAVKGFYPSDIAVEWESNGQPENNYKTTPPVLDSDGSFFLVSKLTVDKSRWQQGNVFSCSVMHEALHNHYTQKSLSLSPDYKDDDDK EPKSSDKTHTCPPCPAPELLGGPSVFLFPPKPKDTLMISRTPEVTCVVVDVSHEDPEVKFNWYVDGVEVHNAKTKPREEQYNSTYRVVSVLTVLHQDWLNGKEYKCKVSNKALPAPIEKTISKAKGQPREPQVCTLPPSRDELTKNQVSLWCLVKGFYPSDIAVEWESNGQPENNYKTTPPVLDSDGSFFLYSKLTVDKSRWQQGNVFSCSVMHEALHNRYTQKSLSLSP light: DIVMTQSPLSLPVTPGEPASISCRSSQSLVHSNRNTYLHWYQQKPGQAPRLLIYKVSNRFTGVPDRFSGSGSGTDFTLKISRVEAEDVGVYYCGQGTQVPYTFGQGTKLEIKRTVAAPSVFIFPPSDEQLKSGTASVVCLLNNFYPREAKVQWKVDNALQSGNSQESVTEQDSKDSTYSLSSTLTLSKADYEKHKVYACEVTHQGLSSPVTKSFNRGEC
1.12 ratio | CE115HA000/GLS3000 S56W one-arm antibody (antibody, human IgG1, kappa, L234A L235A, N297A, name in Kabat numbering, one-arm IgG1) heavy: QVQLVESGGGVVQPGRSLRLSCAASGFTFSNAWMHWVRQAPGKGLEWVAQIKAKSNNYATYYAESVKGRFTISRDDSKNSLYLQMNSLKTEDTAVYYCRYVHYGAYYGVDAWGQGTTVTVSSASTKGPSVFPLAPSSKSTSGGTAALGCLVKDYFPEPVTVSWNSGALTSGVHTFPAVLQSSGLYSLSSVVTVPSSSLGTQTYICNVNHKPSNTKVDKKVEPKSCDKTHTCPPCPAPEAAGGPSVFLFPPKPKDTLMISRTPEVTCVVVDVSHEDPEVKFNWYVDGVEVHNAKTKPREEQYASTYRVVSVLTVLHQDWLNGKEYKCKVSNKALPAPIEKTISKAKGQPREPQVYTLPPSRCELTKNQVSLSCAVKGFYPSDIAVEWESNGQPENNYKTTPPVLDSDGSFFLVSKLTVDKSRWQQGNVFSCSVMHEALHNHYTQKSLSLSPDYKDDDDK EPKSSDKTHTCPPCPAPELLGGPSVFLFPPKPKDTLMISRTPEVTCVVVDVSHEDPEVKFNWYVDGVEVHNAKTKPREEQYNSTYRVVSVLTVLHQDWLNGKEYKCKVSNKALPAPIEKTISKAKGQPREPQVCTLPPSRDELTKNQVSLWCLVKGFYPSDIAVEWESNGQPENNYKTTPPVLDSDGSFFLYSKLTVDKSRWQQGNVFSCSVMHEALHNRYTQKSLSLSP light: DIVMTQSPLSLPVTPGEPASISCRSSQSLVHSNRNTYLHWYQQKPGQAPRLLIYKVSNRFWGVPDRFSGSGSGTDFTLKISRVEAEDVGVYYCGQGTQVPYTFGQGTKLEIKRTVAAPSVFIFPPSDEQLKSGTASVVCLLNNFYPREAKVQWKVDNALQSGNSQESVTEQDSKDSTYSLSSTLTLSKADYEKHKVYACEVTHQGLSSPVTKSFNRGEC
0.94 ratio | CE115HA000/GLS3000 S56V one-arm antibody (antibody, human IgG1, kappa, L234A L235A, N297A, name in Kabat numbering, one-arm IgG1) heavy: QVQLVESGGGVVQPGRSLRLSCAASGFTFSNAWMHWVRQAPGKGLEWVAQIKAKSNNYATYYAESVKGRFTISRDDSKNSLYLQMNSLKTEDTAVYYCRYVHYGAYYGVDAWGQGTTVTVSSASTKGPSVFPLAPSSKSTSGGTAALGCLVKDYFPEPVTVSWNSGALTSGVHTFPAVLQSSGLYSLSSVVTVPSSSLGTQTYICNVNHKPSNTKVDKKVEPKSCDKTHTCPPCPAPEAAGGPSVFLFPPKPKDTLMISRTPEVTCVVVDVSHEDPEVKFNWYVDGVEVHNAKTKPREEQYASTYRVVSVLTVLHQDWLNGKEYKCKVSNKALPAPIEKTISKAKGQPREPQVYTLPPSRCELTKNQVSLSCAVKGFYPSDIAVEWESNGQPENNYKTTPPVLDSDGSFFLVSKLTVDKSRWQQGNVFSCSVMHEALHNHYTQKSLSLSPDYKDDDDK EPKSSDKTHTCPPCPAPELLGGPSVFLFPPKPKDTLMISRTPEVTCVVVDVSHEDPEVKFNWYVDGVEVHNAKTKPREEQYNSTYRVVSVLTVLHQDWLNGKEYKCKVSNKALPAPIEKTISKAKGQPREPQVCTLPPSRDELTKNQVSLWCLVKGFYPSDIAVEWESNGQPENNYKTTPPVLDSDGSFFLYSKLTVDKSRWQQGNVFSCSVMHEALHNRYTQKSLSLSP light: DIVMTQSPLSLPVTPGEPASISCRSSQSLVHSNRNTYLHWYQQKPGQAPRLLIYKVSNRFVGVPDRFSGSGSGTDFTLKISRVEAEDVGVYYCGQGTQVPYTFGQGTKLEIKRTVAAPSVFIFPPSDEQLKSGTASVVCLLNNFYPREAKVQWKVDNALQSGNSQESVTEQDSKDSTYSLSSTLTLSKADYEKHKVYACEVTHQGLSSPVTKSFNRGEC
1.1 ratio | CE115HA000/GLS3000 S56Y one-arm antibody (antibody, human IgG1, kappa, L234A L235A, N297A, name in Kabat numbering, one-arm IgG1) heavy: QVQLVESGGGVVQPGRSLRLSCAASGFTFSNAWMHWVRQAPGKGLEWVAQIKAKSNNYATYYAESVKGRFTISRDDSKNSLYLQMNSLKTEDTAVYYCRYVHYGAYYGVDAWGQGTTVTVSSASTKGPSVFPLAPSSKSTSGGTAALGCLVKDYFPEPVTVSWNSGALTSGVHTFPAVLQSSGLYSLSSVVTVPSSSLGTQTYICNVNHKPSNTKVDKKVEPKSCDKTHTCPPCPAPEAAGGPSVFLFPPKPKDTLMISRTPEVTCVVVDVSHEDPEVKFNWYVDGVEVHNAKTKPREEQYASTYRVVSVLTVLHQDWLNGKEYKCKVSNKALPAPIEKTISKAKGQPREPQVYTLPPSRCELTKNQVSLSCAVKGFYPSDIAVEWESNGQPENNYKTTPPVLDSDGSFFLVSKLTVDKSRWQQGNVFSCSVMHEALHNHYTQKSLSLSPDYKDDDDK EPKSSDKTHTCPPCPAPELLGGPSVFLFPPKPKDTLMISRTPEVTCVVVDVSHEDPEVKFNWYVDGVEVHNAKTKPREEQYNSTYRVVSVLTVLHQDWLNGKEYKCKVSNKALPAPIEKTISKAKGQPREPQVCTLPPSRDELTKNQVSLWCLVKGFYPSDIAVEWESNGQPENNYKTTPPVLDSDGSFFLYSKLTVDKSRWQQGNVFSCSVMHEALHNRYTQKSLSLSP light: DIVMTQSPLSLPVTPGEPASISCRSSQSLVHSNRNTYLHWYQQKPGQAPRLLIYKVSNRFYGVPDRFSGSGSGTDFTLKISRVEAEDVGVYYCGQGTQVPYTFGQGTKLEIKRTVAAPSVFIFPPSDEQLKSGTASVVCLLNNFYPREAKVQWKVDNALQSGNSQESVTEQDSKDSTYSLSSTLTLSKADYEKHKVYACEVTHQGLSSPVTKSFNRGEC
1.15 ratio | CE115HA000/GLS3000 S56R one-arm antibody (antibody, human IgG1, kappa, L234A L235A, N297A, name in Kabat numbering, one-arm IgG1) heavy: QVQLVESGGGVVQPGRSLRLSCAASGFTFSNAWMHWVRQAPGKGLEWVAQIKAKSNNYATYYAESVKGRFTISRDDSKNSLYLQMNSLKTEDTAVYYCRYVHYGAYYGVDAWGQGTTVTVSSASTKGPSVFPLAPSSKSTSGGTAALGCLVKDYFPEPVTVSWNSGALTSGVHTFPAVLQSSGLYSLSSVVTVPSSSLGTQTYICNVNHKPSNTKVDKKVEPKSCDKTHTCPPCPAPEAAGGPSVFLFPPKPKDTLMISRTPEVTCVVVDVSHEDPEVKFNWYVDGVEVHNAKTKPREEQYASTYRVVSVLTVLHQDWLNGKEYKCKVSNKALPAPIEKTISKAKGQPREPQVYTLPPSRCELTKNQVSLSCAVKGFYPSDIAVEWESNGQPENNYKTTPPVLDSDGSFFLVSKLTVDKSRWQQGNVFSCSVMHEALHNHYTQKSLSLSPDYKDDDDK EPKSSDKTHTCPPCPAPELLGGPSVFLFPPKPKDTLMISRTPEVTCVVVDVSHEDPEVKFNWYVDGVEVHNAKTKPREEQYNSTYRVVSVLTVLHQDWLNGKEYKCKVSNKALPAPIEKTISKAKGQPREPQVCTLPPSRDELTKNQVSLWCLVKGFYPSDIAVEWESNGQPENNYKTTPPVLDSDGSFFLYSKLTVDKSRWQQGNVFSCSVMHEALHNRYTQKSLSLSP light: DIVMTQSPLSLPVTPGEPASISCRSSQSLVHSNRNTYLHWYQQKPGQAPRLLIYKVSNRFRGVPDRFSGSGSGTDFTLKISRVEAEDVGVYYCGQGTQVPYTFGQGTKLEIKRTVAAPSVFIFPPSDEQLKSGTASVVCLLNNFYPREAKVQWKVDNALQSGNSQESVTEQDSKDSTYSLSSTLTLSKADYEKHKVYACEVTHQGLSSPVTKSFNRGEC
